T1: recombinant, soluble human ASGR-1 (human, UniProt P07306 62-291)
T1 construct: biotinylated in the binning assay; also called soluble huASGR-1; Soluble ASGR-1 (Amgen)
T1 sequence: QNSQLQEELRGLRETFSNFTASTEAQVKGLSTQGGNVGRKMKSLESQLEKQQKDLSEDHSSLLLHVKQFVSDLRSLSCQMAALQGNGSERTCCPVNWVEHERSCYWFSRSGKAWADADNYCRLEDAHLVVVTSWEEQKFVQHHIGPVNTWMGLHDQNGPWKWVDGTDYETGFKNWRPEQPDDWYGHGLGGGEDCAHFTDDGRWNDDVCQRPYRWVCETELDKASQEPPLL


Columns and labels:
[1] = biological target: T1, recombinant, soluble human ASGR-1; assay: Octet BLI dissociation, pH 5.6 plus calcium
Outline: (§1)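 Antibodies were captured on anti-human Fc biosensors, and soluble ASGR-1 (6 ug/ml) was associated for 2 min in Tris buffer containing 1 mM CaCl2 at pH 7.4, followed by 10 min dissociation under each test condition. The signal at the end of association was set as 100%. Percent ASGR-1 still bound after 1 min of dissociation was compared with the pH 7.4 plus calcium control, and >10% extra dissociation was scored as sensitive.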

[2] = biological target: T1, recombinant, soluble human ASGR-1; assay: Octet BLI dissociation, pH 7.4 minus calcium
Outline: as §1

[3] = biological target: T1, recombinant, soluble human ASGR-1; assay: Octet BLI dissociation, pH 5.6 minus calcium
Outline: as §1

Binder	% Change Compared to pH 7.4 + Calcium [1] [%]	% Change Compared to pH 7.4 + Calcium [2] [%]	% Change Compared to pH 7.4 + Calcium [3] [%]
9G9 (antibody, V domains shown, hybridoma mAb) VH: not shown VL: QSVLTQPPSASGTPGQRVNMSCSGTNSNIGSYTVNWYQQLPGTAPKLLIYINNQRPSGVPDRFSGSKSGTSASLAISGLQSEDEADYYCAAWDDSLNGHVVFGGRTKLTVL	38	25	55
147D10 (antibody, V domains shown, hybridoma mAb) VH: EVQLLESGGGLVQPGGSLRLSCAASGFTFSSYAMSWVRQAPGKGLEWVSAISGRGGNTFYADSVKGRFTISRDNSKNTLYLQMNSLRAEDTAVYYCAKKDYDYVWGSPYFDYWGQGTLVTVSS VL: DIQMTQSPASVSASVGDRVTITCRASQNISNWLTWYQQKPGKAPKLLIYAASSLQSGVPSRFSGSGSGTDFTLSISSLQPEDFATYYCQQTDSFPFTFGPGTKVDVK	4	13	11
149F8 (antibody, V domains shown, hybridoma mAb) VH: EVQLLESGGGLVQPGGSLRLSCAASGFTFSSYAMSWVRQAPGKGLEWVSAISGRGGNTFYADSVKGRFTISRDNSKNTLYLQMNSLRAEDTAVYYCAKKDYDYVWGSPYFDYWGQGTLVTVSS VL: DIQMTQSPASVSASVGDRVTITCRASQGISNWLAWYQQKPGKAPKLLIYAASSLQSGVPSRFSGNESGTDFTLSISSLQPEDFAIYYCQQTDSFPFTFGPGTKVDVK	-8	1	-1
149D11 (antibody, V domains shown, hybridoma mAb) VH: EVQLLESGGGLVQPGGSLRLSCAASGFTFSSYAMSWVRQAPGKGLEWVSAISGRGGNTFYADSVKGRFTISRDNSKNTLYRQMNSLRAEDTAVYYCAKKDYDYVWGSPYFDYWGQGTLVTVSS VL: DIQMTQSPASVSASVGDRVTITCRASQNISNWLTWYQQKPGKAPKLLIYAASSLQSGVPSRFSGSGSGTDFTLSISSLQPEDFATYYCQQTDSFPFTFGPGTKVDVK	3	11	11
48B12 (antibody, V domains shown, hybridoma mAb) VH: EVQLLESGGGLVQPGGSLRLSCAASGFTFSSYAMNWVRQAPGKGLEWVSAISGRGGNTFYADSVKGRFTISRDNSKNTLYLQMNSLRAEDTAVYYCAKRETYNWNYEGFDYWGQGTLVTVSS VL: SYELTQPPSVSVSPGQTARITCSGDALPKKYAYWYQQKSGQAPVLVIYEDSKRPSGIPERFSGSSSGTMATLTISGAQVEDEADYYCNSTDSSGNHVVFGGGTKLTVL	-6	4	0
52H2 (antibody, V domains shown, hybridoma mAb) VH: EVQLLESGGGLVQPGGSLRLSCAASGFTFSRNAMSWVRQAPGMGLEWVSAISGRGGNTFYADSVKGRFTVSRDNSKNTLFLQMNSLRAEDTAVYYCAKNGREQWLDYWGQGTLVTVSS VL: DIQMTQSPSSVSASVGDRVTITCRASQNITNWLAWFQQKPGRAPKLLIYTTSSLQSGVPSRFSGSGSGTDFTLTISSLQPEDFATYCCQQTNSFPWTFGHGTKVEVK	11	26	32
6G7 (antibody, V domains shown, hybridoma mAb) VH: QVQLVESGGGVVQPGRSLRLSCAASGFTFSSYGMHWVRQTPGKGLEWVAIISYVGKNKYYADSVKGRFTISRDNSKNTLYLQMNSLRAEDTAVYYCARRGNSYGGYGMDVWGQGTTVTVSS VL: DIQMTQSPSSRSASVGDRVTITCQASQDISNYLNWCQQKPGKALKLLIYDASTLETGVPSRFSGSGSGTDFTFTISSVQPEDIATYYCQQYDNVPITFGQGTRLEIK	4	8	16
